Measured values published in article PMC9812381 (Science Advances, 2023).

Molecular target: T1, Cullin-5 (CUL5), residues 12-780 (human, UniProt Q93034 12-780)
T1 construct: source: E. coli BL21 (DE3), coexpressed with RBX2, purified (Ni-NTA, SEC); not shown: GB1, N-terminal, cleaved
T1 sequence: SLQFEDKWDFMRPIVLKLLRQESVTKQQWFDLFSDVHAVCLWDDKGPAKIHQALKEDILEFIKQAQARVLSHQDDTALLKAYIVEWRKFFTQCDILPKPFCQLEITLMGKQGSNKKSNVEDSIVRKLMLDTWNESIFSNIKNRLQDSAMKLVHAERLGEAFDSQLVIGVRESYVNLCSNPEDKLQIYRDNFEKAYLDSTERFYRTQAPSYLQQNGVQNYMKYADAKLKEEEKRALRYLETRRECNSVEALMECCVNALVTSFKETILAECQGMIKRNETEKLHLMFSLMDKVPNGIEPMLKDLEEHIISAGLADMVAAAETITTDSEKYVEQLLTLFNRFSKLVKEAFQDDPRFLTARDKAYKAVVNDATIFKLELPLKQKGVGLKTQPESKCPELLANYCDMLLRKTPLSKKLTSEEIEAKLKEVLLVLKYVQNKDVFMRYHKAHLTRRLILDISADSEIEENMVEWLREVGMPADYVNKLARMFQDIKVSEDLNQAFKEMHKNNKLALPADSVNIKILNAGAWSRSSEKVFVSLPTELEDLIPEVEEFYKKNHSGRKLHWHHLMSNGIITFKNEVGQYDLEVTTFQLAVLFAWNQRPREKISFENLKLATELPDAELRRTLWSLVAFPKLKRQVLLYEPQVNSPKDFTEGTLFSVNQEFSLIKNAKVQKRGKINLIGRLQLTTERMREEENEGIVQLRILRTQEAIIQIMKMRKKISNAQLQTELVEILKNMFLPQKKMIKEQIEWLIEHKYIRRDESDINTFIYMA
Test: cryo-EM structure
Conditions: both partners purified

B1: zinc finger RING-box protein 2 (RBX2), residues 1-113 (natural protein)
chain: MADVEDGEETCALASHSGSSGSKSGGDKMFSLKKWNAVAMWSWDVECDTCAICRVQVMDACLRCQAENKQEDCVVVWGECNHSFHNCCMSLWVKQNNRCPLCQQDWVVQRIGK
notes: source: E. coli BL21 (DE3), coexpressed with CUL5, purified (Ni-NTA, SEC)
B1: binds.
